Source: patent US20240101670A1 (Eli Lilly, published 2024)
Where “and” joins values, the source holds several entries; their conditions need not be identical. Equal entries are not always repeated.

T1: human LAIR1 on cells (human, UniProt Q6GTX8 22-287)
T1 sequence: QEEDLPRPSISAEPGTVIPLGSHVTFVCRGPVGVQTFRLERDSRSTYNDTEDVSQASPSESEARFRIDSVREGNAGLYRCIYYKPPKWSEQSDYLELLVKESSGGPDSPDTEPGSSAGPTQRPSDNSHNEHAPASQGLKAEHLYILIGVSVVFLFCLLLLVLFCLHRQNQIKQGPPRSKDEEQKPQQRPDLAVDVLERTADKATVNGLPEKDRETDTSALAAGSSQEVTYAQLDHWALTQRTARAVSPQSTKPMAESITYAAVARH

T2: soluble, extracellular domain (ECD) of LAIR1 (human, UniProt Q6GTX8 22-163)
T2 construct: Produced recombinantly; also called LAIR1-ECD; LAIR1 ECD protein
T2 chain: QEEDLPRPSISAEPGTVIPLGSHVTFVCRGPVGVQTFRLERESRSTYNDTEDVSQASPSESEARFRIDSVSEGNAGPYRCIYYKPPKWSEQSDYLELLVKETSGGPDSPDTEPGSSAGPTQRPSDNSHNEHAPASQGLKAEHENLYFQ

T3: LAIR2 (human, UniProt Q6ISS4 22-152)
T3 construct: also called human LAIR2
T3 sequence (looked up): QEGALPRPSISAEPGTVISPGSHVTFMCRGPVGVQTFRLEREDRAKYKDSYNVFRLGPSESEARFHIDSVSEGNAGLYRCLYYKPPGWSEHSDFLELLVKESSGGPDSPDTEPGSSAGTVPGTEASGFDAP


Legend:
human LAIR1 on cells [1] = biological target: T1, human LAIR1 on cells; experiment: cell-based or functional assay
[2] = biological target: T2, soluble, extracellular domain (ECD) of …; experiment: SPR, Biacore 8K, 37 °C, antibody captured on anti-human kappa, LAIR1-ECD as analyte
Method: Antibody binding affinity and kinetics were determined by surface plasmon resonance (SPR) using a Biacore 8K (Cytivia Life Sciences). Measurements were performed at 37° C. using HBS-EP+ as the running buffer (150 mM sodium chloride, 3 mM EDTA, 0.05% (w/v) surfactant P-20, and 10 mM HEPES, pH7.4). Binding experiments used the soluble, extracellular domain (ECD) of LAIR1 (SEQ ID NO: 17), produced recombinantly, which was diluted to working concentration in HBS-EP+ containing 0.1 mg/mL Bovine serum albumin. Goat anti-Human kappa (Southern Biotech) was immobilized on all eight flow cells of a CM4 sensor chip using an amine coupling kit.
Binding was evaluated using multiple analytical cycles. Each cycle is performed at a flow rate of 30 μL/minute and consists of the following steps: injection of antibody over a different flow cell (25 μL of antibody at 0.5 μg/mL at 10 μL/minute), injection of 75 μL (30 μL/min, for 150 seconds) of each LAIR1-ECD dilution (starting at 1 μM and using three-fold serial dilutions to 1.4 nM for each cycle, with one injection for each concentration) followed by a 1200 second delay for dissociation, and chip surface regeneration using three 15 μL injections (30 μL/min, for 30 seconds) of 10 mM glycine hydrochloride, pH1.7. Association and dissociation rates for each cycle were determined by fitting of the biosensor data to a simple 1:1 association model using the provided instrument analysis software to extract the kₒₙ and koff rate constants; the equilibrium binding constant KD was calculated using the relationship Kd=koff/kₒₙ.

human LAIR1 on cells [3] = biological target: T1, human LAIR1 on cells; experiment: cell-based or functional assay; remark: listed apart in the source
human LAIR1 on cells [4] = biological target: T1, human LAIR1 on cells; experiment: cell-based or functional assay; remark: listed apart in the source
human LAIR1 on cells [5] = biological target: T1, human LAIR1 on cells; experiment: in vivo receptor occupancy by FACS on splenocytes, CD4 T cells; fit table; log10 of the dose, unit not given
human LAIR1 on cells [6] = biological target: T1, human LAIR1 on cells; experiment: flow cytometry, Jurkat-hLAIR1+ cells
Method: (§1) The anti-human LAIR1 antibodies were evaluated for binding to human and cynomolgus monkey (cyno) LAIR1 engineered cell lines and primary human T cells that endogenously express LAIR1. Jurkat-hLAIR1+ (Jurkat cell overexpressing human LAIR1), Jurkat-LAIR1ko (Jurkat cell knocking out human LAIR1), Jurkat-cyLAIR1+ cells (Jurkat LAIR1ko cell expressing cyno LAIR1), and primary human T cells were incubated with the anti-human LAIR1 test antibodies. […] Cells were then washed and incubated with anti-human IgG Alexa Fluor 647 secondary antibody for 20 minutes at 4° C. Cells were then washed and antibody binding was evaluated by flow cytometry. For primary human T cells, cells were also stained for CD4 and CD8 to delineate CD4+ and CD8+ T cells.

[7] = biological target: cynomolgus monkey LAIR1 on cells (cynomolgus monkey); experiment: cell-based or functional assay
human LAIR1 on cells [8] = biological target: T1, human LAIR1 on cells; experiment: cell-based or functional assay; remark: listed apart in the source
LAIR2 = biological target: T3, LAIR2; experiment: ELISA on hLAIR2, O.D.560 against antibody concentration
[9] = biological target: T4, cynomolgus monkey LAIR1 on cells (cynomolgus monkey); experiment: flow cytometry, Jurkat-cyLAIR1+ cells
T4 construct: whole, on cells; Jurkat LAIR1ko cells expressing cyno LAIR1; also called cyno LAIR1; cyLAIR1
Method: as §1

human LAIR1 on cells [10] = biological target: T1, human LAIR1 on cells; experiment: in vivo receptor occupancy by FACS on splenocytes, CD8 T cells; fit table; log10 of the dose, unit not given
Text: Human peripheral blood mononuclear cells (PBMCs) were engrafted into NSG mice where the human immune cells recognize the mouse as foreign and mount an immune response resulting in Graft versus Host Disease (GvHD). […] Blood was obtained on day 5 by retro-orbital sinus and day 8 by cardiac puncture and processed for analyses of serum cytokines (MSD human pro-inflammatory cytokine panel) and drug exposure (antigen capture ELISA).

human LAIR1 on cells [11] = biological target: T1, human LAIR1 on cells; experiment: flow cytometry, primary human CD8+ T cells (endogenous LAIR1)
Method: as §1

human LAIR1 on cells [12] = biological target: T1, human LAIR1 on cells; experiment: in vivo receptor occupancy by FACS on splenocytes, Treg; fit table; log10 of the dose, unit not given
human LAIR1 on cells [13] = biological target: T1, human LAIR1 on cells; experiment: flow cytometry, primary human CD4+ T cells (endogenous LAIR1)
Method: as §1

Human C1q = biological target: T5, Human C1q (human, UniProt P02745 23-245; P02746 28-253; P02747 29-245); experiment: ELISA: antibody coated on the plate at the concentration shown, human C1q added at 10 ug/mL, detection with sheep anti-human C1q-HRP, OD450
T5 construct: Bought (MS Biomedical); also called complement component C1q
T5 sequence (P02745 23-245 limits assumed, chain 1 of 3): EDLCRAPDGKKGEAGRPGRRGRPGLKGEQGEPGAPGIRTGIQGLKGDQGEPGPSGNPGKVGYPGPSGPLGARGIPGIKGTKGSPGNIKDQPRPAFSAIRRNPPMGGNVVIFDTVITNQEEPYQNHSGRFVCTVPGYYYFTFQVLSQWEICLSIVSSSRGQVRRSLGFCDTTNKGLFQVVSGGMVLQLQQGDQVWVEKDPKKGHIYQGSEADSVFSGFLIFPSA
T5 sequence (P02746 28-253 limits assumed, chain 2 of 3): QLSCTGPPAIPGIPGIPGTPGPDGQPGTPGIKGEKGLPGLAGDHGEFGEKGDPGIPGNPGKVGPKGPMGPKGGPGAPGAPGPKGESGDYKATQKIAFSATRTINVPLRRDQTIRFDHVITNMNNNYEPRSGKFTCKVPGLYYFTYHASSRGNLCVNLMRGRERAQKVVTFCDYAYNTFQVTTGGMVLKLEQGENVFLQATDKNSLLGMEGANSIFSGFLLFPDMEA
T5 sequence (P02747 29-245 limits assumed, chain 3 of 3): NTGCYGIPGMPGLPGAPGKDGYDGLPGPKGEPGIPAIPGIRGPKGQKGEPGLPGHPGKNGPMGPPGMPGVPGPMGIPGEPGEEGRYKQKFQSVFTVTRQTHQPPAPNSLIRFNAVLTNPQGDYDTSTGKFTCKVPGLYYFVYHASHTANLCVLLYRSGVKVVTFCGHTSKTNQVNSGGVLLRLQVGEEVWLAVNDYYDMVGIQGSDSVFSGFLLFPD
Method: Testing was performed in duplicate wells. The plate was sealed and incubated overnight at 4° C. The coating reagent was removed from each well, and 200 μL/well of casein blocking reagent (Thermo) was added. The plate was sealed and incubated for 2 hours at room temperature (RT). Each well was washed 3 times with wash buffer (1×TBE with 0.05% Tween 20). One hundred microliters per well of Human C1q (MS Biomedical) at 10 μg/mL diluted in casein blocking reagent was added and incubated for 3 hours at RT. The plate was then washed three times with wash buffer before 100 μL/well of a 1:800 times dilution of Sheep anti-human C1q-HRP (Abcam #ab46191) in casein blocker was added and incubated for 1 hour at RT. The plate was washed 6 times with wash buffer, and 100 μL/well of TMB Substrate (Pierce) was added to each well and incubated for 7 minutes. […] Optical density was immediately measured using a colorimetric microplate reader set to 450 nm.

Inhibition of IFN-γ response at 1 µg/mL (% inhibition vs. no antibody), primary human T cells (human LAIR1 on cells [1])	Kd [2]	koff [2]	kon [2]	Inhibition of IL-6 response at 8 ng/mL (% inhibition vs. no antibody), primary human B cells (human LAIR1 on cells [3])	IC50 of inhibition of B cell IL-6 response to BCR stimulation (human LAIR1 on cells [4])	IC50 of inhibition of Jurkat-hLAIR1+ NFAT activation (human LAIR1 on cells [4])	LogIC50 of % receptor occupancy, CD4 T cells (human LAIR1 on cells [5])	EC50 (human LAIR1 on cells [6])	Inhibition of NFAT Activity (% inhibition vs. no antibody), Jurkat-cyLAIR1+ [7]	IC50 of antibody activity, Jurkat-hLAIR1+ NFAT (human LAIR1 on cells [8])	Inhibition of NFAT Activity (% inhibition vs. no antibody), Jurkat-hLAIR1+ (human LAIR1 on cells [8])	binding result (LAIR2)	EC50 [9]	LogIC50 of % receptor occupancy, CD8 T cells (human LAIR1 on cells [10])	EC50 (human LAIR1 on cells [11])	LogIC50 of % receptor occupancy, Treg (human LAIR1 on cells [12])	EC50 (human LAIR1 on cells [13])	binding result (Human C1q)	Binder
41.1%	0.291 nM	0.000317 s⁻¹	1.09e+06 M⁻¹ s⁻¹	42.7%	0.0002 nM and 0.03 ng/mL	0.045 nM	-0.933	0.0565 µg/mL	65.5%	0.00666 µg/mL	60.4%	no binding (tested: 10 ug/ml)	0.0893 µg/mL	-0.864	0.0349 µg/mL	-0.771	0.0162 µg/mL	no binding (tested: 10 ug/mL)	mAb4 (antibody, human IgG4 S228P, kappa, also called anti-human LAIR1 mAb4; LAIR1 agonist antibody) heavy: not shown light: DIVMTQSPLSLPVTPGEPASISCRSSPSLLHSDGYNWLDWYLQKPGQSPQLLIYLGSNRASGVPDRFSGSGSGTDFTLKISRVEAEDVGVYYCMQAHQTPFTFGQGTKVEIKRTVAAPSVFIFPPSDEQLKSGTASVVCLLNNFYPREAKVQWKVDNALQSGNSQESVTEQDSKDSTYSLSSTLTLSKADYEKHKVYACEVTHQGLSSPVTKSFNRGEC
45.8%	0.312 nM	0.000341 s⁻¹	1.09e+06 M⁻¹ s⁻¹	35.4%				0.058 µg/mL	59.6%	0.00858 µg/mL	49.8%		0.0824 µg/mL		0.0414 µg/mL		0.0288 µg/mL		mAb2 (antibody, human IgG2, kappa, also called anti-human LAIR1 antibody mAb2) heavy: QVQLQESGPGLVKPSETLSLTCTVSGGSISNNYWSWIRQPAGKGLEWIGRMYSSGSTQKNPSLKSRVTMSVDTSKNQFSLKLSSVTAADTAVYYCVRGPNWGSPYYGVDVWGQGTTVTVSSASTKGPSVFPLAPSSRSTSESTAALGCLVKDYFPEPVTVSWNSGALTSGVHTFPAVLQSSGLYSLSSVVTVPSSNFGTQTYTCNVDHKPSNTKVDKTVERKCCVECPPCPAPPVAGPSVFLFPPKPKDTLMISRTPEVTCVVVDVSHEDPEVQFNWYVDGMEVHNAKTKPREEQFNSTFRVVSVLTVVHQDWLNGKEYKCKVSNKGLPAPIEKTISKTKGQPREPQVYTLPPSREEMTKNQVSLTCLVKGFYPSDIAVEWESNGQPENNYKTTPPMLDSDGSFFLYSKLTVDKSRWQQGNVFSCSVMHEALHNHYTQKSLSLSPG light: DIVMTQSPLSLPVTPGEPASISCRSSPSLLHSDGYNWLDWYLQKPGQSPQLLIYLGSNRASGVPDRFSGSGSGTDFTLKISRVEAEDVGVYYCMQAHQTPFTFGQGTKVEIKRTVAAPSVFIFPPSDEQLKSGTASVVCLLNNFYPREAKVQWKVDNALQSGNSQESVTEQDSKDSTYSLSSTLTLSKADYEKHKVYACEVTHQGLSSPVTKSFNRGEC
35.7%	0.121 nM	0.000174 s⁻¹	1.44e+06 M⁻¹ s⁻¹	60.2%				0.0548 µg/mL	44.2%	0.00942 µg/mL	54.2%		0.0784 µg/mL		0.0489 µg/mL		0.037 µg/mL		mAb1 (antibody, human IgG2, kappa, also called anti-human LAIR1 antibody mAb1) heavy: QVQLQESGPGLVKPSETLSLTCTAFGGSISGHYWSWIRQPAGKGLEWIGRIYPSGGTNKNPSLKSRVTMSVDTSKNQFSLKLSSVTAADTAVYYCVRDYWDDYYGMDVWGQGTTVTVSSASTKGPSVFPLAPSSRSTSESTAALGCLVKDYFPEPVTVSWNSGALTSGVHTFPAVLQSSGLYSLSSVVTVPSSNFGTQTYTCNVDHKPSNTKVDKTVERKCCVECPPCPAPPVAGPSVFLFPPKPKDTLMISRTPEVTCVVVDVSHEDPEVQFNWYVDGMEVHNAKTKPREEQFNSTFRVVSVLTVVHQDWLNGKEYKCKVSNKGLPAPIEKTISKTKGQPREPQVYTLPPSREEMTKNQVSLTCLVKGFYPSDIAVEWESNGQPENNYKTTPPMLDSDGSFFLYSKLTVDKSRWQQGNVFSCSVMHEALHNHYTQKSLSLSPG light: not shown
